What is called Ki is the equilibrium dissociation constant of an inhibitor or competing ligand from its target. A higher Ki goes with a looser hold on the target. By Kd is commonly meant the equilibrium constant for the complex coming apart. A higher Kd goes with lower affinity.

The target of test [1] is T1, TAPL (Homo sapiens, UniProt Q9NP78).
T1 construct: Human coreTAPL (Q9NP78 UniProt, amino acid 143–766) fused C-terminally to mVenus; made in house; host or cells: Pichia pastoris SMD1168-His+
T1 sequence (Q9NP78 143-766): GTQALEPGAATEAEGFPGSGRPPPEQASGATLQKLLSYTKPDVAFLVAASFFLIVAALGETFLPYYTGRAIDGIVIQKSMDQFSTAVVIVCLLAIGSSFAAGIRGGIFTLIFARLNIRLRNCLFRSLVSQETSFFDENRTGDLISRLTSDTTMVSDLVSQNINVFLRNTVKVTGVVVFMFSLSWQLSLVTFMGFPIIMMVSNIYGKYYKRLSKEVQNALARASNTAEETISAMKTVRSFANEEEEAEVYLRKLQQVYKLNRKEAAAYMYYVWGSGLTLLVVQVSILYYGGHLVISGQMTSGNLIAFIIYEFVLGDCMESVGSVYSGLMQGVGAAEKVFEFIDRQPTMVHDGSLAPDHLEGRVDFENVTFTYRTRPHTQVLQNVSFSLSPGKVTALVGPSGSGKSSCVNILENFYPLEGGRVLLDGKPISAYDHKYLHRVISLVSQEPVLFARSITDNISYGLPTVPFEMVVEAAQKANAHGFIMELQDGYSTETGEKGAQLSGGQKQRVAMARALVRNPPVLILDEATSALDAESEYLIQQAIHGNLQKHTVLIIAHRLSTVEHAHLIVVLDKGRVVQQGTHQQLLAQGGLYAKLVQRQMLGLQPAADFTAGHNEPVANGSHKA
In words: Peptide transport into TAPL proteoliposomes. In kind it is biochemical. The conditions noted are these: proteoliposomes, 3 mM ATP, 15 min, 37 °C, pH 7.5; fluorescein labeled (FL) peptides used; triplicates, SD; listed as 16-mer^FL. The procedure: (A) Proteoliposomes (0.5 mg/ml lipids) were incubated with 10 µM of 9-mer^FL peptide and 3 mM ATP, 3 mM ADP, without any nucleotide (−) or with 3 mM ATP in the presence of ortho-vanadate (Vi, 500 µM). […] […] Transport was performed in triplicates with error bars indicating SD.
CoreTAPL fused C-terminally to mVenus was produced in P. pastoris by large scale expression in a 7.5 liter Labfors4 reactor (Infors HT, Einsbach, Germany) by fed batch method and cell pellets were stored at −80 °C[14],[44]. Core[…] fused C-terminally to mVenus was produced in P. pastoris in Erlenmeyer flasks. TmrAB from T. thermophilus was expressed in Escherichia coli and cell pellets were stored at −80 °C[30]. CoreTAPL and TmrAB were purified and reconstituted (40:1 (wt/wt) lipid to protein) as described into unilamellar liposomes composed of E. coli polar lipids and DOPC (7:3 (wt/wt); Avanti Polar Lipids), which were ultrasonicated, five times frozen and thawed and extruded through a 400 nm polycarbonate filter (Avestin, Mannheim, Germany)[13],[14],[30]. Proteoliposomes were snap frozen in liquid nitrogen and stored at −80 °C. […] Concentration of coreTAPL and core[…] was determined by specific absorption of mVenus (ε515 = 45.950 M^−1cm^−1). For calculation of TmrAB concentration ε280 = 159.630 M^−1cm^−1 was applied.

Test [2] addresses T1, TAPL. In words: NTP hydrolysis by TAPL, malachite green based assay. In kind it is biochemical. How it is done:
Kinetics were recorded under steady-state conditions in which peptide accumulation in proteoliposomes is far below saturation (Figs S2,S5).
ATP hydrolysis was determined by malachite green based assay in the absence or presence of 100 µM peptide (filled bar) or ortho-vanadate (500 µM, white bar) (A) or with increasing peptide concentrations (B). Hydrolysis rates of 16-mer and 18-mer peptide were fitted with equation 6. IC50 values, Hill coefficients and kcat are depicted in Table 1. […] All experiments were performed in triplicates, error bars indicate SD.
The reaction was started by the addition of NTP. Background and autohydrolysis were determined with 500 µM ortho-vanadate or in the absence of protein, respectively. Hydrolysis was stopped by the addition of 20 mM H2SO4, supplemented with malachite green solution (3 mM malachite green, 0.2% (v/v) Tween 20, 1.5% (w/v) ammoniummolybdate) and absorption was detected after 10 min incubation at room temperature at 620 nm using a microplate reader (CLARIOstar, BMG LABTECH). IC50 values for peptides were determined by6 v=vmin+vmax−vmin/1+10^(LOGIC50−[I])⋅n where v represents the peptide inhibitor [I] dependent hydrolysis rate, vmax the maximal hydrolysis rate in the absence of peptide, vmin the minimal hydrolysis rate at saturating peptide concentrations and n the Hill slope. IC50 represents the half maximal inhibitory peptide concentration.

The target of test [3] is T2, coreTAPL (core complex of the transporter associated with antigen processing-like, ABCB9) fused C-terminally to mVenus (human) (UniProt Q9NP78).
T2 sequence: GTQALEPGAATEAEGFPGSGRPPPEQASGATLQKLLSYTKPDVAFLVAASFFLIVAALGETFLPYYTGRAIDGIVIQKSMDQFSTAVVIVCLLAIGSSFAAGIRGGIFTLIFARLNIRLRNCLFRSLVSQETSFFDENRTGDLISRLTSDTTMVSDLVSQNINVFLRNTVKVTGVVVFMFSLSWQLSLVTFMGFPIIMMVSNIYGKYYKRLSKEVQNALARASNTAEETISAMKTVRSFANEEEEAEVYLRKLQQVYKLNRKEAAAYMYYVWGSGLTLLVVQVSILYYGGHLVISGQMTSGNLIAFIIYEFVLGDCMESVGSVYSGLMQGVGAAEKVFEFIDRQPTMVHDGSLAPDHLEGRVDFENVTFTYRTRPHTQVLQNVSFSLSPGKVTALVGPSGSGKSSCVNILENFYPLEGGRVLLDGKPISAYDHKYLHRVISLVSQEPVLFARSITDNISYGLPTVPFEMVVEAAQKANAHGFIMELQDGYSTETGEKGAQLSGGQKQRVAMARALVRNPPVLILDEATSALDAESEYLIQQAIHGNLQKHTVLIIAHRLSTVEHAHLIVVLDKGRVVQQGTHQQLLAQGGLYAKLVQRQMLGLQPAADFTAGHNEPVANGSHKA

For test [4], the target named is T3, coreTAPL (core complex of the transporter associated with antigen processing-like, ABCB9) fused C-terminally … (human, UniProt Q9NP78 143-766).
T3 construct: TAPL (ABCB9), human, core complex without TMD0, amino acids 143-766 of UniProt Q9NP78; source: reconstituted into proteoliposomes for transport and ATPase assays; not shown: mVenus, C-terminal, kept
T3 sequence (looked up): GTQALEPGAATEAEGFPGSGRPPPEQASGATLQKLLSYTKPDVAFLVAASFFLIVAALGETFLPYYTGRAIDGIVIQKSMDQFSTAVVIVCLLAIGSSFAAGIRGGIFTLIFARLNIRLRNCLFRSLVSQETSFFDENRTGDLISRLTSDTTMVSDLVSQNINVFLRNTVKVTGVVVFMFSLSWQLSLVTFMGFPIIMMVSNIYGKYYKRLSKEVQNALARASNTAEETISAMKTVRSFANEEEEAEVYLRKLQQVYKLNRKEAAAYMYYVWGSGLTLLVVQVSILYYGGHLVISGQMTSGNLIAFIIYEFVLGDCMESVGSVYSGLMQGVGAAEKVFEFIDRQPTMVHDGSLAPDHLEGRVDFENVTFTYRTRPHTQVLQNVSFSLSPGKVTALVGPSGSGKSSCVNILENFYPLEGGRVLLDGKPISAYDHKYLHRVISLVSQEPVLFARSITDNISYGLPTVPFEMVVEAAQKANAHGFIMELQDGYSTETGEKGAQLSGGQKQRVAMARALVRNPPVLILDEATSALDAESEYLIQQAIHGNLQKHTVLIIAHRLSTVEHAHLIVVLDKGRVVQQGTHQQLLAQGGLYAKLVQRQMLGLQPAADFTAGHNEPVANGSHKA
In words: MST; competition: 100 nM 9-mer^Atto-655 peptide and 10 µM TAPL with unlabeled competitor peptide (18-mer titrated; 9-mer at 4 mM); 22 °C; Ki fitted considering competitor depletion. The settings on record: both partners purified.

Test [5] concerns the target T3, coreTAPL (core complex of the …). In words: cell-based or functional assay.
Test [6] has as its target T2, coreTAPL (core complex of the transporter associated with antigen processing-like, ABCB9) fused C-terminally to mVenus (human). This is another data set of the same source.
The target is the same in test [7]. The source holds these as a separate data set.
Test [8] concerns the target T3, coreTAPL (core complex of the …). In words: MST; 100 nM 9-mer^Atto-655 peptide with increasing TAPL concentrations; 20 mM HEPES, 140 mM NaCl, 0.05% DDM, 15% glycerol, pH 7.5; 22 °C; one-site binding model. The conditions noted are these: both partners purified.

Bridge positions count the residues as written; N and C are the ends. Side chains are listed from the residue outwards. Ends that are not written are not given here. Peptide text beside a SMILES is read from it. I, II: the chains in the order shown.

Take `CC(C)C[C@H](NC(=O)[C@H](CCC(=O)O)NC(=O)[C@@H](NC(=O)[C@H](CO)NC(=O)[C@H](CCCCNC(=O)[C@H](CCCCN)NC(=O)[C@H](CCCCN)NC(=O)[C@H](CCCCN)NC(=O)[C@H](CCCCN)NC(=O)[C@H](CCCCN)NC(=O)[C@H](CCCCN)NC(=O)[C@H](CCCCN)NC(=O)[C@@H](N)CCCCN)NC(=O)[C@H](CS)NC(=O)[C@H](Cc1ccc(O)cc1)NC(=O)[C@@H](N)CCCNC(=N)N)[C@@H](C)O)C(=O)O` [16-mer, RYCK(K8)STEL] (I: H-KKKKKKKK / II: H-RYCKSTEL-OH; amide I:C-II:4; N-terminus assumed): the “kcat(Pep) turnover number of peptide transport” value at TAPL [1] was found to be 0.00417 s⁻¹. In addition, at TAPL [2] (ATP hydrolysis at saturating peptide divided by peptide transport turnover), the “ATP per translocated peptide” value was 100 ATP per translocated peptide. Also, the “Hill slope of ATP hydrolysis inhibition” value at TAPL [2] (proteoliposomes, 3 mM ATP, 15 min, 37 °C, malachite green, unlabeled peptides) is on record as −2.09 ± 0.73. Also, the “kcat(ATP) rate constant of ATP hydrolysis” value on TAPL [2] (under saturating peptide concentration, 3 mM ATP, 15 min, 37 °C, malachite green, unlabeled peptides) came to 0.367 ± 0.067 s⁻¹.

B1: branched 16-mer peptide RYCK(K8)STEL (peptide)
peptide: RYCK([Lys-Lys-Lys-Lys-Lys-Lys-Lys-Lys])STEL
modifications: also: octa-lysine attached by isopeptide bonds
B1: the IC50 of inhibition of ATP hydrolysis of reconstituted TAPL by peptide (malachite green assay, 3 mM ATP, 37 °C) in test [3] was found to be 22 µM.

B2: 18-mer peptide RRYQKSTELRRYQKSTEL (peptide)
peptide: RRYQKSTELRRYQKSTEL
notes: also called unlabeled 18-mer peptide; source: synthetic peptide (solid phase synthesis; Charité, Berlin)
For the molecule B2, the affinity in test [4], expressed as Ki, was 11.8 ± 3.6 µM. Also, the “IC50 of inhibition of ATP hydrolysis of reconstituted TAPL by peptide (malachite green assay, 3 mM ATP, 37 °C)” value in test [5] is 15 µM.

B3: fluorescein labeled branched 16-mer peptide RYCK(K)8STEL (peptide)
peptide: RYC(5‑iodoacetamidofluorescein)K([Lys-Lys-Lys-Lys-Lys-Lys-Lys-Lys])STEL
modifications: also: octa-lysine attached by isopeptide bonds
In test [3], B3 came in with a K (m(Pep)) of peptide transport into TAPL proteoliposomes, 3 mM ATP, 15 min, 37 °C of 8 µM.

B4: fluorescein labeled 9-mer peptide RRYC^FluoresceinKSTEL (peptide)
peptide: RRYC(5‑iodoacetamidofluorescein)KSTEL
In the case of B4, the K (m(Pep)) of peptide transport into TAPL proteoliposomes, 3 mM ATP, 15 min, 37 °C in test [3] came out at 15 µM. Also, in test [6], the K (m(Pep)) of 9-mer^FL peptide transport into TAPL proteoliposomes at 24 °C, 3 mM ATP was determined as 10.8 µM; the K (m(Pep)) of 9-mer^FL peptide transport into TAPL proteoliposomes at 33 °C, 3 mM ATP was determined as 15.3 µM; the K (m(Pep)) of 9-mer^FL peptide transport into TAPL proteoliposomes at 42 °C, 3 mM ATP amounted to 17.3 µM. In addition, the K (m(pep)) of 9-mer transport into TAPL proteoliposomes in the presence of 3 mM GTP in test [7] is 4.4 µM.

B5: fluorescein labeled 18-mer peptide … (peptide)
peptide: RRYQKSTELRRYC(5‑iodoacetamidofluorescein)KSTEL
For the molecule B5, in test [3], the K (m(Pep)) of peptide transport into TAPL proteoliposomes, 3 mM ATP, 15 min, 37 °C worked out at 7 µM.

B6: Atto-655 labeled 9-mer peptide RRYC^Atto-655KSTEL (peptide)
peptide: RRYC(Atto‑655 maleimide)KSTEL
notes: source: synthetic peptide (solid phase synthesis)
Take B6: the Kd in test [8] was determined as 5.4 ± 0.8 µM.

Values taken from publication PMC6695453, “Peptide translocation by the lysosomal ABC transporter TAPL is regulated by coupling efficiency and activation energy” (Scientific Reports, 2019).
